System: EGFP-R96X-TGA reporter
Assay: PTC readthrough of ArgTCA suppressor tRNA versus nonsense suppression drugs, EGFP-R96X-TGA reporter, Neuro-2a cells (FIGS. 21-22)
Format: cell-based, mouse
Settings: versus ataluren, gentamicin, G418
Description: FIG. 21 depicts fluorescent images of Neuro-2a cells ~24 hours after transfection with an expression construct containing an EGFP-R96X-TGA reporter (“GFP-PTC”) and either (i) including the ArgTCA suppressor tRNA #115 (SEQ ID NO: 18) at the indicated copy number on the same construct, or (ii) treated with ataluren at the indicated concentration, (iii) treated with gentamicin at the indication concentration, or (iv) treated with G418 at the indicated concentration. For all experimental conditions, cell culture medium was replaced with fresh medium ~6 hours after transfection and the indicated drugs at the indicated concentrations were added at this point. […]
FIG. 22 is a graph depicting percentage of GFP positive cells as measured by flow cytometry at ~48 hours post transfection. […]
Disclosed suppressor tRNAs were tested alongside nonsense suppression drugs translarna (ataluren), gentamicin, and G418 (geneticin). PTC readthrough activity was measured in Neuro-2a cells ~48 hours after transfection with an expression construct containing a CAG:NLS-EGFP (R96X-TGA) reporter (as described in Example 1) and either (i) including an ArgTCA suppressor tRNA at the indicated copy number on the same construct, or (ii) treated with ataluren, (iii) treated with gentamicin, or (iv) treated with G418. […] PTC readthrough activity was measured as the percentage of EGFP positive cells. […]

B1: tRNA-Arg-TCT-2-1-TCA-SUP_no intron (nucleic acid)
chain: GGCTCCGTGGCGCAATGGATAGCGCATTGGACTTCAAATTCAAAGGTTCCGGGTTCGAGTCCCGGCGGAGTCG
modifications: chemistry not fully specified
B1 was tested, and the “PTC readthrough compared with nonsense suppression drugs” value was “far greater readthrough than any of the nonsense suppression drugs”.
